These substances were tested against mucosa-associated lymphoid tissue lymphoma translocation protein 1 (UniProt Q9UDY8) (assay: enzyme inhibition assay, 100 nM MALT1).
mucosa-associated lymphoid tissue lymphoma translocation protein 1, sequence (Q9UDY8 340-789): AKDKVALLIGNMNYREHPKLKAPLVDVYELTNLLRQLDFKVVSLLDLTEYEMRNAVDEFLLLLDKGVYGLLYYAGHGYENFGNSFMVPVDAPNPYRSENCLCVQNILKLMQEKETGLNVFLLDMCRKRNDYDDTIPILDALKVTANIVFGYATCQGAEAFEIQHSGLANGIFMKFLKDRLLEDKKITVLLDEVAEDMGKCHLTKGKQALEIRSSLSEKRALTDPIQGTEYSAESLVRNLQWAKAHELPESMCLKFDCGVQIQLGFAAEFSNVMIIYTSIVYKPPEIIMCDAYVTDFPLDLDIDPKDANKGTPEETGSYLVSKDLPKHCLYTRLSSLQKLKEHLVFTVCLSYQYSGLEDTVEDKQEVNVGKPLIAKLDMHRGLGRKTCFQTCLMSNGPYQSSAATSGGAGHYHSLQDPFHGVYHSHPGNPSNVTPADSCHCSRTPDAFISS

| Ki [nM] | Substance |
| --- | --- |
| 37 | Benzyl ((S)-1-cyclohexyl-2-((S)-2-(((S)-1-fluoro-6-guanidino-2-oxohexan-3-yl)carbamoyl)piperidin-1-yl)-2-oxoethyl)carbamate (peptide) |
| 55 | Benzyl ((S)-2-((S)-2-(((S)-1-fluoro-6-guanidino-2-oxohexan-3-yl)carbamoyl)pyrrolidin-1-yl)-2-oxo-1-(pyridin-3-yl)ethyl)carbamate (peptide) |
| 70 | (S)-4-((4-Bromobenzoyl)-L-valyl)-N-((S)-1-fluoro-6-guanidino-2-oxohexan-3-yl)morpholine-3-carboxamide (peptide) |
| 102 | (S)-1-((1-naphthoyl)-L-valyl)-N-((S)-1-fluoro-6-guanidino-2-oxohexan-3-yl)pyrrolidine-2-carboxamide (peptide) |
| 182 | (S)-1-((4-Bromobenzoyl)-L-leucyl)-N-((S)-1-fluoro-6-guanidino-2-oxohexan-3-yl)pyrrolidine-2-carboxamide (peptide) |
| 27 | (S)-N-((S)-1-fluoro-6-guanidino-2-oxohexan-3-yl)-1-((4-(trifluoromethoxy)benzoyl)-L-valyl)pyrrolidine-2-carboxamide (peptide) |
| 448 | (S)-1-((S)-2-(4-Bromobenzamido)-3-(4-(trifluoromethyl)phenyl)propanoyl)-N-((S)-1-fluoro-6-guanidino-2-oxohexan-3-yl)pyrrolidine-2-carboxamide (peptide) |
| 146 | Benzyl ((R)-2-((S)-2-(((S)-1-fluoro-6-guanidino-2-oxohexan-3-yl)carbamoyl)pyrrolidin-1-yl)-2-oxo-1-(pyridin-3-yl)ethyl)carbamate (peptide) |
| 66 | (S)-1-(((4-Bromophenyl)sulfonyl)-L-valyl)-N-((S)-1-fluoro-6-guanidino-2-oxohexan-3-yl)pyrrolidine-2-carboxamide (peptide) |
| 46 | 4-Bromo-N-((S)-1-cyclohexyl-2-(((S)-1-(((S)-1-fluoro-6-guanidino-2-oxohexan-3-yl)amino)-3-hydroxy-1-oxopropan-2-yl)amino)-2-oxoethyl)benzamide (peptide) |
| 55 | N-((S)-1-((S)-2-(((S)-1-fluoro-6-guanidino-2-oxohexan-3-yl)carbamoyl)pyrrolidin-1-yl)-3-methyl-1-oxobutan-2-yl)quinoline-2-carboxamide (peptide) |
| 54 | (S)-1-((3-acetamidobenzoyl)-L-valyl)-N-((S)-1-fluoro-6-guanidino-2-oxohexan-3-yl)pyrrolidine-2-carboxamide (peptide) |
| 1180 | Benzyl (1-((S)-2-(((S)-1-fluoro-6-guanidino-2-oxohexan-3-yl)carbamoyl)pyrrolidine-1-carbonyl)cyclopentyl)carbamate (peptide) |
| 111 | N-((S)-1-((S)-2-(((S)-1-Fluoro-6-guanidino-2-oxohexan-3-yl)carbamoyl)pyrrolidin-1-yl)-3-methyl-1-oxobutan-2-yl)-2-morpholinothiazole-4-carboxamide (peptide) |
| 139 | N-((S)-1-((S)-2-(((S)-1-fluoro-6-guanidino-2-oxohexan-3-yl)carbamoyl)pyrrolidin-1-yl)-3-methyl-1-oxobutan-2-yl)quinoline-4-carboxamide (peptide) |
| 53 | Benzyl ((S)-1-((2S,4R)-2-(((S)-1-fluoro-6-guanidino-2-oxohexan-3-yl)carbamoyl)-4-hydroxypyrrolidin-1-yl)-3-methyl-1-oxobutan-2-yl)carbamate (peptide) |
| 64 | benzyl ((S)-1-(((S)-1-(((S)-1-fluoro-6-guanidino-2-oxohexan-3-yl)amino)-3-hydroxy-1-oxopropan-2-yl)amino)-3-methyl-1-oxobutan-2-yl)carbamate (peptide) |
| 122 | (S)-1-((S)-2-(4-Bromobenzamido)-3-cyclohexylpropanoyl)-N-((S)-1-fluoro-6-guanidino-2-oxohexan-3-yl)pyrrolidine-2-carboxamide (peptide) |

| Ki [nM] | Substance |
| --- | --- |
| 15 | (S)-N-((S)-1-fluoro-6-guanidino-2-oxohexan-3-yl)-1-((3-(trifluoromethoxy)benzoyl)-L-valyl)pyrrolidine-2-carboxamide (peptide) |
| 93 | Benzyl ((S)-1-((S)-2-(((S)-1-fluoro-6-guanidino-2-oxohexan-3-yl)carbamoyl)pyrrolidin-1-yl)-4-methyl-1-oxopentan-2-yl)carbamate (peptide) |
| 78 | (S)-1-((4-bromo-3-fluorobenzoyl)-L-valyl)-N-((S)-1-fluoro-6-guanidino-2-oxohexan-3-yl)pyrrolidine-2-carboxamide (peptide) |
| 20 | (S)-3-((4-Bromobenzoyl)-L-valyl)-N-((S)-1-fluoro-6-guanidino-2-oxohexan-3-yl)oxazolidine-4-carboxamide (peptide) |
| 44 | Benzyl ((S)-1-cyclohexyl-2-((S)-2-(((S)-1-fluoro-6-guanidino-2-oxohexan-3-yl)carbamoyl)pyrrolidin-1-yl)-2-oxoethyl)carbamate (peptide) |
| 59 | N-((S)-1-((S)-2-(((S)-1-fluoro-6-guanidino-2-oxohexan-3-yl)carbamoyl)pyrrolidin-1-yl)-3-methyl-1-oxobutan-2-yl)isoquinoline-6-carboxamide (peptide) |
| 58 | (S)-N-((S)-1-fluoro-6-guanidino-2-oxohexan-3-yl)-1-((3-morpholinobenzoyl)-L-valyl)pyrrolidine-2-carboxamide (peptide) |
| 45 | (S)-1-((S)-2-(4-bromobenzamido)-2-cyclohexylacetyl)-N-((S)-1-fluoro-6-guanidino-2-oxohexan-3-yl)pyrrolidine-2-carboxamide (peptide) |
| 50 | (2S,4R)-1-((4-Bromobenzoyl)-L-valyl)-N-((S)-1-fluoro-6-guanidino-2-oxohexan-3-yl)-4-hydroxypyrrolidine-2-carboxamide (peptide) |
| 10 | (S)-1-((4-Bromobenzoyl)-L-valyl)-N-((S)-1-fluoro-6-guanidino-2-oxohexan-3-yl)pyrrolidine-2-carboxamide (peptide) |
| 56 | (S)-1-((Cyclohexanecarbonyl)-L-valyl)-N-((S)-1-fluoro-6-guanidino-2-oxohexan-3-yl)pyrrolidine-2-carboxamide (peptide) |
| 175 | (S)-N-((S)-1-fluoro-6-guanidino-2-oxohexan-3-yl)-1-((3-(4-methylpiperazin-1-yl)benzoyl)-L-valyl)pyrrolidine-2-carboxamide (peptide) |
| 62 | (S)-1-(((4-Chlorophenyl)carbamoyl)-L-valyl)-N-((S)-1-fluoro-6-guanidino-2-oxohexan-3-yl)pyrrolidine-2-carboxamide (peptide) |
| 100 | N-((S)-1-((S)-2-(((S)-1-Fluoro-6-guanidino-2-oxohexan-3-yl)carbamoyl)pyrrolidin-1-yl)-3-methyl-1-oxobutan-2-yl)-1-methyl-1H-pyrazole-4-carboxamide (peptide) |
| 40 | Benzyl ((S)-1-((S)-2-(((S)-1-fluoro-6-guanidino-2-oxohexan-3-yl)carbamoyl)piperidin-l-yl)-3-methyl-1-oxobutan-2-yl)carbamate (peptide) |
| 43 | (S)-N-((S)-1-Fluoro-6-guanidino-2-oxohexan-3-yl)-1-((3-phenylpropanoyl)-L-valyl)pyrrolidine-2-carboxamide (peptide) |
| 42 | (S)-N-((S)-1-Fluoro-6-guanidino-2-oxohexan-3-yl)-1-((2-phenylacetyl)-L-valyl)pyrrolidine-2-carboxamide (peptide) |
